The supplement of paper PMC10126150
± gives the standard deviation of the averaged measurements.

Tested on: ATP
Assay: switch fluorescence ratio, 500 uM ATP over buffer (Cy3 cluster intensity, sum of 5 cycles each) (fold (ratio)); higher = stronger signal-on switching upon ATP binding; sequences stand for … in TCGTCGGCAGCGTCAGATGTGTATAAGAGACAGTTTTTTTTTTTTTTTTTTTTTTTTT…TC
Conditions: aptamer strand: ATP DNA aptamer (quencher-CACCTGGGGGAGTATTGCGGAGGAAGG + anchor), 100 nM annealed; ATP concentration: 500 uM
Summary of the method: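 Cy3-labelled switching-strand clusters on a modified Illumina MiSeq flow-cell were annealed to 100 nM quencher-labelled ATP aptamer and imaged first in selection buffer, then after 15 min with 500 uM ATP at 22 °C. NaOH stripping and re-annealing separated each of five buffer/ATP cycles, and clusters outside 100-1000 RFU were excluded. The fluorescence ratio sums target-cycle Cy3 intensity over buffer-cycle Cy3 intensity per cluster and averages it per switch-domain sequence.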
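Also: ATP exposure 15 min at 22 °C before imaging.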

## AGGCGTTCTG
  switch fluorescence ratio: 0.991 ± 0.051

## AGGCTAACGA
  switch fluorescence ratio: 1.015 ± 0.0049

## AGGCTAGGGG
  switch fluorescence ratio: 1.01 ± 0.042

## AGGCTATTTC
  switch fluorescence ratio: 0.994 ± 0.019

## AGGCTCATAG
  switch fluorescence ratio: 0.96982 ± 0.00072

## AGGCTCATTG
  switch fluorescence ratio: 1.01 ± 0.033

## AGGCTGCAG
  switch fluorescence ratio: 0.961 ± 0.037

## AGGCTGCGTT
  switch fluorescence ratio: 1.02 ± 0.038

## AGGCTGGGGT
  switch fluorescence ratio: 1.02 ± 0.031

## AGGCTTAGAC
  switch fluorescence ratio: 1.04 ± 0.032

## AGGCTTGGTG
  switch fluorescence ratio: 0.988 ± 0.012

## AGGCTTGTGT
  switch fluorescence ratio: 0.99 ± 0.077

## AGGCTTTTTT
  switch fluorescence ratio: 0.966 ± 0.065

## AGGGAAACGG
  switch fluorescence ratio: 0.96 ± 0.018

## AGGGAAAGTC
  switch fluorescence ratio: 0.9854 ± 0.0058

## AGGGAAATGG
  switch fluorescence ratio: 0.979 ± 0.034

## AGGGAACGAC
  switch fluorescence ratio: 1.03 ± 0.05

## AGGGAAGAGA
  switch fluorescence ratio: 1 ± 0.021

## AGGGAATCGG
  switch fluorescence ratio: 0.976 ± 0.03

## AGGGAATGAT
  switch fluorescence ratio: 1.01 ± 0.015

## AGGGACGGGG
  switch fluorescence ratio: 0.991 ± 0.047

## AGGGAGAGTT
  switch fluorescence ratio: 1.02 ± 0.017

## AGGGAGCAGT
  switch fluorescence ratio: 1.018 ± 0.01

## AGGGAGGACT
  switch fluorescence ratio: 1.022 ± 0.009

## AGGGAGGATC
  switch fluorescence ratio: 1.02 ± 0.017

## AGGGAGGGAA
  switch fluorescence ratio: 1.01 ± 0.022

## AGGGAGGGTA
  switch fluorescence ratio: 0.9889 ± 0.0098

## AGGGAGGTCG
  switch fluorescence ratio: 0.973 ± 0.035

## AGGGAGTCTG
  switch fluorescence ratio: 1.018 ± 0.0035

## AGGGATCAGC
  switch fluorescence ratio: 1 ± 0.008

## AGGGATGCGG
  switch fluorescence ratio: 0.99607 ± 0.00094

## AGGGATGGGA
  switch fluorescence ratio: 1.01 ± 0.019

## AGGGATGTCC
  switch fluorescence ratio: 1.01 ± 0.044

## AGGGATGTTT
  switch fluorescence ratio: 0.999 ± 0.026

## AGGGCAGGGC
  switch fluorescence ratio: 0.917 ± 0.069

## AGGGCAGTGG
  switch fluorescence ratio: 0.9796 ± 0.0025

## AGGGCATAGG
  switch fluorescence ratio: 0.9652 ± 0.0066

## AGGGCCAGGT
  switch fluorescence ratio: 1.11 ± 0.023

## AGGGCCAGTC
  switch fluorescence ratio: 0.998 ± 0.074

## AGGGCCGTTG
  switch fluorescence ratio: 0.996 ± 0.035

## AGGGCGAAGA
  switch fluorescence ratio: 0.96 ± 0.022

## AGGGCGCGTG
  switch fluorescence ratio: 0.995 ± 0.05

## AGGGCGGATT
  switch fluorescence ratio: 1.01 ± 0.031

## AGGGCGGGAT
  switch fluorescence ratio: 0.965 ± 0.049

## AGGGCTGAGC
  switch fluorescence ratio: 0.996 ± 0.052

## AGGGCTTTAC
  switch fluorescence ratio: 1.1314 ± 8.1e-05

## AGGGGAAATG
  switch fluorescence ratio: 0.9645 ± 0.0024

## AGGGGAGAGG
  switch fluorescence ratio: 0.992 ± 0.01

## AGGGGAGGAT
  switch fluorescence ratio: 1.1 ± 0.15

## AGGGGAGGGG
  switch fluorescence ratio: 1.02 ± 0.042

## AGGGGAGTCG
  switch fluorescence ratio: 0.987 ± 0.021

## AGGGGAGTTC
  switch fluorescence ratio: 1.04 ± 0.035

## AGGGGATATT
  switch fluorescence ratio: 0.996 ± 0.01

## AGGGGATCAA
  switch fluorescence ratio: 0.985 ± 0.015

## AGGGGCAGTT
  switch fluorescence ratio: 0.985 ± 0.02

## AGGGGCCAGT
  switch fluorescence ratio: 0.98 ± 0.019

## AGGGGCGGTG
  switch fluorescence ratio: 0.994 ± 0.017

## AGGGGCGTGA
  switch fluorescence ratio: 0.99 ± 0.011

## AGGGGCTGCG
  switch fluorescence ratio: 0.938 ± 0.029

## AGGGGGAAAA
  switch fluorescence ratio: 1.47 ± 0.69

## AGGGGGAAAT
  switch fluorescence ratio: 0.987 ± 0.035

## AGGGGGAACG
  switch fluorescence ratio: 1.01 ± 0.016

## AGGGGGAAGT
  switch fluorescence ratio: 0.99 ± 0.045

## AGGGGGAGGA
  switch fluorescence ratio: 1.01 ± 0.04

## AGGGGGAGTC
  switch fluorescence ratio: 1.02 ± 0.053

## AGGGGGATGT
  switch fluorescence ratio: 0.974 ± 0.05

## AGGGGGCATC
  switch fluorescence ratio: 1.01 ± 0.07

## AGGGGGCGCC
  switch fluorescence ratio: 1.02 ± 0.016

## AGGGGGGAAC
  switch fluorescence ratio: 1.01 ± 0.024

## AGGGGGGAAG
  switch fluorescence ratio: 0.989 ± 0.023

## AGGGGGGATC
  switch fluorescence ratio: 1.01 ± 0.046

## AGGGGGGCT
  switch fluorescence ratio: 1.01 ± 0.031

## AGGGGGGGAC
  switch fluorescence ratio: 1 ± 0.021

## AGGGGGGGGT
  switch fluorescence ratio: 1 ± 0.05

## AGGGGGGTCG
  switch fluorescence ratio: 0.992 ± 0.072

## AGGGGGGTTT
  switch fluorescence ratio: 1 ± 0.024

## AGGGGGTAAC
  switch fluorescence ratio: 1 ± 0.051

## AGGGGGTACT
  switch fluorescence ratio: 1 ± 0.011

## AGGGGGTGCG
  switch fluorescence ratio: 0.988 ± 0.029

## AGGGGGTGGG
  switch fluorescence ratio: 0.989 ± 0.02

## AGGGGGTGGT
  switch fluorescence ratio: 0.987 ± 0.043

## AGGGGGTTAG
  switch fluorescence ratio: 0.989 ± 0.03

## AGGGGTACTC
  switch fluorescence ratio: 0.9982 ± 0.0076

## AGGGGTAGGC
  switch fluorescence ratio: 0.9893 ± 0.0036

## AGGGGTCCCG
  switch fluorescence ratio: 0.93546 ± 0.00063

## AGGGGTCGCG
  switch fluorescence ratio: 0.981 ± 0.0054

## AGGGGTCTTA
  switch fluorescence ratio: 0.978 ± 0.02

## AGGGGTGCTA
  switch fluorescence ratio: 0.9996 ± 0.0095

## AGGGGTGGTA
  switch fluorescence ratio: 0.981 ± 0.043

## AGGGGTGTAG
  switch fluorescence ratio: 1.03 ± 0.057

## AGGGGTGTTG
  switch fluorescence ratio: 0.991 ± 0.032

## AGGGGTTAAA
  switch fluorescence ratio: 1.01 ± 0.022

## AGGGGTTATC
  switch fluorescence ratio: 1.02 ± 0.026

## AGGGGTTCTG
  switch fluorescence ratio: 1.01 ± 0.046

## AGGGGTTGAG
  switch fluorescence ratio: 0.998 ± 0.036

## AGGGGTTTGG
  switch fluorescence ratio: 0.983 ± 0.024

## AGGGTAAACG
  switch fluorescence ratio: 0.986 ± 0.024

## AGGGTACGGG
  switch fluorescence ratio: 1.063 ± 0.0037

## AGGGTATTTA
  switch fluorescence ratio: 1.007 ± 0.01

## AGGGTATTTG
  switch fluorescence ratio: 0.987 ± 0.011
